Reference: paper PMC8834437, “Physical Interaction between Embryonic Stem Cell-Expressed Ras (ERas) and Arginase-1 in Quiescent Hepatic Stellate Cells” (Cells, 2022)

T1: purified arginase 1 (ARG1; aa 1-322) (UniProt P05089 1-322)
T1 construct: Arginase 1 (ARG1), P05089, aa 1-322; Named MBP-ARG1 only for the SPR; also called MBP-ARG1; purified ARG1
T1 sequence (looked up): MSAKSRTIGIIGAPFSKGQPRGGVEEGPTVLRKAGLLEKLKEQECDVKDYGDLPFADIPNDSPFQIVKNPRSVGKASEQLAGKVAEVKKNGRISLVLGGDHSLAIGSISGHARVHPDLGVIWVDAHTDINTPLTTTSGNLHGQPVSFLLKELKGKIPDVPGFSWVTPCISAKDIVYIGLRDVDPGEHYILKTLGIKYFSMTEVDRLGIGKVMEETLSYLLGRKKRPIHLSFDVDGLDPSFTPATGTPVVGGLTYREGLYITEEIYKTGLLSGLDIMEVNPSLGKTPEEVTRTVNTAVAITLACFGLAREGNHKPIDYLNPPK


How the values were obtained:
[1] = biological target: T1, purified arginase 1 (ARG1; aa 1-322); experiment: pull-down; GST-fusion proteins immobilized on GSH agarose beads, mixed with purified ARG1, 1 h at 4 °C; conditions: both partners purified
[2] = biological target: T1, purified arginase 1 (ARG1; aa 1-322); experiment: SPR; Biacore X100, CM5 chip, GST-hsNex (10 µM) captured by immobilized anti-GST antibody, MBP-ARG1 0.5-20 µM injected, 25 °C, 10 mM HEPES pH 7.4, 150 mM NaCl, 0.05% P20, Langmuir 1:1 model; conditions: both partners purified

Binder	binding result [1]	Kd [2]
MELPTKPGTFDLGLATWSPSFQGETHRAQARRRDVGRQ (domain or fragment, UniProt Q7Z444 1-38, looked up, Embryonic stem cell-expressed Ras (ERas), human, Q7Z444, N-terminal extension (Nex) aa 1-38; Cloned into pMal-c5X-His or pGEX-4T1-N-TEV; used as GST fusion; also called ERas hsNex; GST-Nex of human ERas) [GST-hsNex (human ERas N-terminal extension, aa 1-38)]		2100 nM
MALPTKSSILDLSPGTQCSRSPEESHEAWAQCKDAGRQ (domain or fragment, UniProt D3ZTE4 1-38, looked up, Embryonic stem cell-expressed Ras (ERas), rat, D3ZTE4, N-terminal extension (Nex) aa 1-38; also called ERas rnNex; GST-Nex of rat ERas) [GST-rnNex (rat ERas N-terminal extension, aa 1-38)]	binds	

Other lines, results leading:

binding result [1]	Kd [2]	Binder
binds		GST-hsFL (human ERas full length, aa 1-233) (natural protein, UniProt Q7Z444 1-233, looked up, Embryonic stem cell-expressed Ras (ERas), human, Q7Z444, FL aa 1-233; also called ERas hsFL; GST-FL of human ERas) MELPTKPGTFDLGLATWSPSFQGETHRAQARRRDVGRQLPEYKAVVVGASGVGKSALTIQLNHQCFVEDHDPTIQDSYWKELTLDSGDCILNVLDTAGQAIHRALRDQCLAVCDGVLGVFALDDPSSLIQLQQIWATWGPHPAQPLVLVGNKCDLVTTAGDAHAAAAALAHSWGAHFVETSAKTRQGVEEAFSLLVHEIQRVQEAMAKEPMARSCREKTRHQKATCHCGCSVA
binds		GST-rnFL (rat ERas full length, aa 1-227) (natural protein, UniProt D3ZTE4 1-227, looked up, Embryonic stem cell-expressed Ras (ERas), rat, D3ZTE4, FL aa 1-227; also called GST-FL of rat ERas) MALPTKSSILDLSPGTQCSRSPEESHEAWAQCKDAGRQLPEYKAVVVGASGVGKSALTIQMTHHCFVKDHDPTIQDSYWKEVALDNGGYILNVLDTAGQDSHRALRDQCLAAGDGVLGVFALDDPSSLDQLQQICSTWNPHHKQPLVLVGNKSDLVSSAGDAHTAAAVLAHKLGAPLVKTSAKTRQGVEEAFALLVHEIQRAQEAVAESSKKTRHHKAVCSCGCSVA
